{
  "source": "patent US6858775B1",
  "about": "“Method for generating split, non-transferable genes that are able to express an active protein product” (New England Biolabs, Inc., priority 1999, dated 2005)",
  "molecules": {"B1": {"name": "ALSII: wild type E. coli acetolactate synthase II expressed from plasmid pALSII (protein)", "chain": "MNGAQWVVHALRAQGVNTVFGYPGGAIMPVYDALYDGGVEHLLCRHEQGAAMAAIGYARATGKTGVCIATSGPGATNLITGLADALLDSIPVVAITGQVSAPFIGTDAFQEVDVLGLSLACTKHSFLVQSLEELPRIMAEAFDVACSGRPGPVLVDIPKDIQLASGDLEPWFTTVENEVTFPHAEVEQARQMLAKAQKPMLYVGGGVGMAQAVPALREFLAATKMPATCTLKGLGAVEADYPYYLGMLGMHGTKAANFAVQECDLLIAVGARFDDRVTGKLNTFAPHASVIHMDIDPAEMNKLRQAHVALQGDLNALLPALQQPLNQYDWQQHCAQLRDEHSWRYDHPGDAIYAPLLLKQLSDRKPADCVVTTDVGQHQMWAAQHIAHTRPENFITSSGLGTMGFGLPAAVGAQVARPNDTVVCISGDGSFMMNVQELGTVKRKQLPLKIVLLDNQRLGMVRQWQQLFFQERYSETTLTDNPDFLMLASAFGIHGQHITRKDQVEAALDTMLNSDGPYLLHVSIDELENVWPLVPPGASNSEMLEKLS"}},
  "key": {"[1]": {"test_system": "E. coli ER2744", "experiment": "Plate assay: rescue of E. coli ER2744 growth on valine or valine plus SM M9 plates", "format": "cell-based", "source_text": "E. coli ER2744 strain was employed as an in vivo model system for assessing the activity of the herbicide resistant E. coli ALSII gene, genetically modified by a linker insertion between Q327 and C328. E. coli ER2744 is derived from wild type E. coli K12 that contains the active ALSI and ALSIII enzymes, but not an active ALSII. ALSI and ALSIII are two isoforms of ALS genes in E. coli, which are crucial for the synthesis of valine, isoleucine and leucine (LaRossa and Schloss, J. Biol. Chem. 259:8753-8757 (1984)). Their activity is sensitive to the valine feedback inhibition. Therefore, by saturating the growth medium with 100 μg/ml valine (Sigma, St. Louis, Mo.), ALSI and III will be inhibited and the cells will stop growing. By introducing a recombinant herbicide resistant ALSII (ALSIIm) into E. coli cells, their growth will be rescued since ALSII is resistant to valine inhibition.\nPlate assays were conducted to examine the capability of ALSIIm-14 to rescue E. coli ER2744 from valine (100 μg/ml) or valine plus herbicide SM (50 μg/ml, Supelco Park, Bellefonte, Pa.) saturated M9 minimum medium plate (Sambrook et al., (1989)). The M9 medium contains 2 μg/ml Thiamin, 2 mM MgSO4, 0.1 mM CaCl2, 0.2% glucose, 50 μg/ml of kanamycin, 100 μg/ml of ampicillin and 0.3 mM IPTG. For the plating assay, 100 μl of 25 mg/ml Valine with or without 50 μl of 25 μg/ml Sulfometuron methyl (SM) was spread on M9 selection plate. To assay bacterial growth, overnight cultures were streaked on M9 plates with or without valine and/or SM. The plates were incubated at various temperatures (as indicated in FIG. 7) for 48 to 72 hrs before the pictures were taken. On the plate supplemented with valine, cells expressing either ALSII, ALSIIm or ALSIIm-14 were able to grow (FIG. 7-a). However, when both valine and SM was applied, only strains expressing herbicide-resistant ALSIIm or ALSIIm-14 were able to grow (FIG. 7-b).\nThe next step was to determine whether the spliced product, as the result of trans-splicing of the ALSIIm (ALSIIm(N)—INn and ALSIIm(C)—INc) fusion proteins, would render E. coli ER2744 resistant to valine and SM. The first experiment was to test the effect of co-expression of ALSIIm(N)—INn and ALSIIm(C)—INc fusion proteins on cell growth in valine saturated M9 minimum medium. In a plating assay (see Section 4.), all transformed cells grew well on M9 medium in the absence of valine (FIG. 9A-a). […] (FIG. 9A-b, 9A-c) in the presence of valine. […] (FIG. 9A-c) or lower temperatures (data not shown) from a valine plate."}, "[2]": {"test_system": "E. coli ER2744", "experiment": "Quantitative liquid culture assay (OD600) of E. coli ER2744 in valine / SM M9 medium", "format": "cell-based", "conditions": "30° C.", "procedure": "A quantitative liquid culture assay was performed to verify the results obtained from the plating assay. The liquid assay was performed as follows. A single colony was used to inoculate LB medium supplemented with kanamycin and ampicillin at 37° C. for 4 hours. Expression was induced by 0.3 mM IPTG and cell cultures were shifted to 30° C. for another 2 hrs. Then, 200 μL of equivalent OD600 8.0 was spun down, washed one time with M9 medium and resuspended in 200 μl M9 medium. 40 μl was aliquoted into 2 ml of appropriate culture medium and grown for 24-72 hours before its OD600 was measured. The concentration for valine is 100 μg/ml and for SM is 50 μg/ml. At 30° C., all transformed cells grew equally well in M9 minimum medium (FIG. 9B). […] To further compare the growth kinetics for trans-splicing mediated cell growth to wild type ALSII mediated cell growth, a time course study was performed (FIG. 9C)."}},
  "data": [
    {"molecule": "ALSIIm(N)—INn: fusion of ALSIIm N-terminal 327 residues and Ssp DnaE intein N-terminal 123 residues", "values": [
      {"measurement": "cell growth on M9 plate in the presence of valine at both 30° C. and 37° C.", "setting": "[1]; 100 μg/ml valine", "result": "did not grow"},
      {"measurement": "cell growth in valine saturated M9 liquid medium", "setting": "[2]; 100 μg/ml valine", "result": "did not rescue cell growth"}
    ]},
    {"molecule": "B1", "values": [
      {"measurement": "cell growth on M9 plate with valine and herbicide SM", "setting": "[1]; 100 μg/ml valine and 50 μg/ml SM, 30° C., 0.3 mM IPTG", "result": "could not rescue cell growth"},
      {"measurement": "cell growth on M9 plate in the presence of valine at both 30° C. and 37° C.", "setting": "[1]; 100 μg/ml valine", "result": "rescued the cells growth"},
      {"measurement": "cell growth on M9 plate supplemented with valine", "setting": "[1]; 100 μg/ml valine, 30° C., 0.3 mM IPTG", "result": "able to grow"},
      {"measurement": "cell growth in valine M9 liquid medium containing SM", "setting": "[2]; 100 μg/ml valine, 50 μg/ml SM", "result": "no growth"},
      {"measurement": "cell growth in valine saturated M9 liquid medium", "setting": "[2]; 100 μg/ml valine", "result": "allowed cells to grow"},
      {"measurement": "growth rate, time course study", "setting": "[2]; M9 medium with 100 μg/ml valine", "result": "fastest growth rate"}
    ]}
  ]
}
